Data from doi:10.1101/2022.08.23.504973 (bioRxiv, 2022).

Biological target: KEAP1 (Kelch-like ECH-associated protein 1), recombinant (UniProt Q14145 1-624)
Test: SPR

Chain of KEAP1 (Kelch-like ECH-associated protein 1), recombinant (Q14145 whole entry): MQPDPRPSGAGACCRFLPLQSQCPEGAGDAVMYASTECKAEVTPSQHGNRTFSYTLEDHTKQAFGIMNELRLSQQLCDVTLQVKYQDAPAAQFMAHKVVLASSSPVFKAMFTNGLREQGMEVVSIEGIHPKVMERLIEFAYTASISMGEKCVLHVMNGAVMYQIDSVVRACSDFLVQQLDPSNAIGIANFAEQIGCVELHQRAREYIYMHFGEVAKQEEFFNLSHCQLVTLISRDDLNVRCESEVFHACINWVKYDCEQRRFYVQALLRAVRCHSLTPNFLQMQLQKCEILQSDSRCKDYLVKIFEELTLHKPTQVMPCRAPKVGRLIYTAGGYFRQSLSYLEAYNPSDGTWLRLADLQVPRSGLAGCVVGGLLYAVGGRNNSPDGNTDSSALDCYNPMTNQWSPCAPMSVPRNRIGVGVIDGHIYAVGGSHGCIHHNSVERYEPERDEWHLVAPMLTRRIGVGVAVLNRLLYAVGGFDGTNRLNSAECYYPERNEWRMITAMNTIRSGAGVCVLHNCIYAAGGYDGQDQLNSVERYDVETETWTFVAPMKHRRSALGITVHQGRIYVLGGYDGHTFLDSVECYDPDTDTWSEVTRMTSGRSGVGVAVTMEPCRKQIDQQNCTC

B1: BDNF mature recombinant (brain-derived neurotrophic factor) (ligand, human, UniProt P23560 129-247, looked up)
chain: HSDPARRGELSVCDSISEWVTAADKKTAVDMSGGTVTVLEKVPVSKGQLKQYFYETKCNPMGYTKEGCRGIDKRHWNSQCRTTQSYVRALTMDSKKRIGWRFIRIDTSCVCTLTIKRGR
Kd: 2.71 nM
koff: 0.00225 s⁻¹
kon: 828000 M⁻¹ s⁻¹
